Data taken from patent US20100190682A1, “USE OF PROTEIN HYDROLYSATES TO STABILIZE METALLOPROTEASE DETERGENT FORMULATIONS” (priority 2007, published 2010).

Legend:
[1] = NprE stability at different storage concentrations (AGLA activity over time); type: physicochemical
Description: Samples were prepared containing the neutral metalloprotease, NprE, at a range of concentrations from 625 to 10000 ppm in 10 mM HEPES (N-(2-Hydroxyethyl)piperazine-N′-(2-ethanesulfonic acid)) buffer at pH 8.0. All samples, except the one control at 625 ppm NprE concentration, included 10% PPG and 0.5 mM CaCl2. All samples were incubated at a temperature of 32° C. over a period of 6 hours. NprE activity of the samples was measured using the AGLA activity assay at various time points.

NprE = target: T1, NprE (Bacillus amyloliquefaciens, UniProt P06832); test: Remaining AGLA activity of NprE stability assay samples in DW-CT HDL detergent formulation; type: biochemical; conditions: no inhibitor; 2 mg/mL NprE incubated in HDL detergent formulation DW-CT, 32° C.
T1 construct: made in house; host or cells: Bacillus subtilis
T1 sequence (P06832 222-521): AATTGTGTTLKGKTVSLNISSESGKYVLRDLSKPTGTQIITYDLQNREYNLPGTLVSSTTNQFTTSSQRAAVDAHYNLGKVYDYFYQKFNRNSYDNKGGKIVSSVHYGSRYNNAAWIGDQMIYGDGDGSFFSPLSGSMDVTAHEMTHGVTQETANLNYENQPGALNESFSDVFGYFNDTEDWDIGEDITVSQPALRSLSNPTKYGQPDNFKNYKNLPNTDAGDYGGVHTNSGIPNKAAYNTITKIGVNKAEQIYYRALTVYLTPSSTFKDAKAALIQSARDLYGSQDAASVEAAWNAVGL
Description: The HDL detergent formulation used in this example was: DW-CT. This formulation has a 37% water content and was designed to make up to 90% by volume with 10% room (by volume) to add ingredients such as stabilizers or enzymes.
Assays were carried out using a 10% DW-CT detergent formulation made by mixing 5 mL of DW-CT (prepared as in Table 1), 1 mL of 500 mM HEPES at pH 8.0, and 44 mL distilled water.
Stability assay samples were prepared using five different candidate protein hydrolysates, as well as a control with no inhibitor added.
In general, 20 μL of inhibitor stock solution was pre-mixed with 10 μL of 50 mg/mL NprE stock solution. Then, 220 μL of 10% DW-CT detergent formulation in 10 mM HEPES was added to each sample so that the final NprE concentration was 2 mg/mL. Samples were incubated at 32° C. in a microtiter plate in a Thermomixer (Eppendorf).
The final concentration of enzyme in each sample was 2 mg/mL NprE. The final inhibitor concentrations in their respective samples were: 5.6 mg/mL of Amisoy, Amicase, HyPep 4601, or Proteose Peptone, respectively; or 7.2 mM of the casein hydrolysis product mixture (based on 12.5-fold dilution). […]
Remaining NprE activity of each of stability assay samples (prepared as above) was measured at various time points using the general AGLA activity assay except that the assay solution used was 50 mM MES, 2.5 mM CaCl2, 0.005% Tween 80 at pH 6.5.

[2] = in the presence of zinc ion concentrations lower than 15 mM; cited from earlier work

NprE: recombinant neutral metalloprotease: Bacillus amyloliquefaciens neutral metalloprotease cloned into Bacillus subtilis
NprE activity maintained for 1.5 hours ([1]; 10,000 μg/mL (or ppm) NprE, 10% PPG, 0.5 mM CaCl2, 10 mM HEPES pH 8.0, 32° C.): almost full activity
NprE activity at 1.5 hr ([1]; 625, 1250 and 2500 ppm NprE, 10% PPG, 0.5 mM CaCl2, 10 mM HEPES pH 8.0, 32° C.): ~60%
NprE activity over time, control sample ([1]; 625 ppm NprE, no added PPG or CaCl2, 10 mM HEPES pH 8.0, 32° C.): lost nearly all of its activity within the first 2 hours
loss of original NprE activity in about an hour (NprE): more than 80%
stability period under detergent formulation conditions [2]: approximately 4 weeks
